Patent US20260070987A1
Numbering of substitutions follows the chain as printed. Numbers in names are those of the source.

B1: equine IgG4 Y436L (antibody, part only; not given: variable domains, not shown: another chain or arm of the molecule)
constant: ASTTAPKVFPLASHSAATSGSTVALGCLVSSYFPEPVTVSWNSGALTSGVHTFPSVLQSSGLYSLSSMVTVPASSLKSQTYICNVAHPASSTKVDKKIVIKECNGGCPAECLQVGPSVFIFPPKPKDVLMISRTPTVTCVVVDVGHDFPDVQFNWYVDGVETHTATTEPKQEQFNSTYRVVSVLPIQHKDWLSGKEFKCKVNNKALPAPVERTISKPTGQPREPQVYVLAPHRDELSKNKVSVTCLVKDFYPTDIDIEWKSNGQPEPETKYSTTPAQLDSDGSYFLYSKLTVETNRWQQGTTFTCAVMHEALHNHLTEKSVSKSPGK
B2: equine IgG4 T286I (antibody, part only; not given: variable domains, not shown: another chain or arm of the molecule)
constant: B1 constant with T164I, L316Y
B3: equine IgG4 T286G (antibody, part only; not given: variable domains, not shown: another chain or arm of the molecule)
constant: B1 constant with T164G, L316Y
B4: equine IgG4 Y436S (antibody, part only; not given: variable domains, not shown: another chain or arm of the molecule)
constant: B1 constant with L316S
B5: equine IgG4 T286H (antibody, part only; not given: variable domains, not shown: another chain or arm of the molecule)
constant: B1 constant with T164H, L316Y
B6: equine IgG4 Y436M (antibody, part only; not given: variable domains, not shown: another chain or arm of the molecule)
constant: B1 constant with L316M
B7: equine IgG4 T286E (antibody, part only; not given: variable domains, not shown: another chain or arm of the molecule)
constant: B1 constant with T164E, L316Y
B8: equine IgG4 T286M (antibody, part only; not given: variable domains, not shown: another chain or arm of the molecule)
constant: B1 constant with T164M, L316Y
B9: equine IgG4 T286Q (antibody, part only; not given: Variable domains, not shown: another chain or arm of the molecule)
constant: B1 constant with T164Q, L316Y
B10: equine IgG4 Y436T (antibody, part only; not given: variable domains, not shown: another chain or arm of the molecule)
constant: B1 constant with L316T
B11: equine IgG4 T286A (antibody, part only; not given: variable domains, not shown: another chain or arm of the molecule)
constant: B1 constant with T164A, L316Y
B12: equine IgG4 T286Y (antibody, part only; not given: variable domains, not shown: another chain or arm of the molecule)
constant: B1 constant with T164Y, L316Y
B13: equine IgG4 Y436N (antibody, part only; not given: variable domains, not shown: another chain or arm of the molecule)
constant: B1 constant with L316N
B14: equine IgG4 T286K (antibody, part only; not given: variable domains, not shown: another chain or arm of the molecule)
constant: B1 constant with T164K, L316Y
B15: equine IgG4 Y436R (antibody, part only; not given: variable domains, not shown: another chain or arm of the molecule)
constant: B1 constant with L316R
B16: equine IgG4 T286L (antibody, part only; not given: variable domains, not shown: another chain or arm of the molecule)
constant: B1 constant with T164L, L316Y
B17: equine IgG4 Y436V (antibody, part only; not given: variable domains, not shown: another chain or arm of the molecule)
constant: B1 constant with L316V
B18: equine IgG4 T286R (antibody, part only; not given: variable domains, not shown: another chain or arm of the molecule)
constant: B1 constant with T164R, L316Y
B19: equine IgG4 T286F (antibody, part only; not given: variable domains, not shown: another chain or arm of the molecule)
constant: B1 constant with T164F, L316Y
B20: equine IgG4 T286W (antibody, part only; not given: Variable domains, not shown: another chain or arm of the molecule)
constant: B1 constant with T164W, L316Y
B21: equine IgG4 T286C (antibody, part only; not given: variable domains, not shown: another chain or arm of the molecule)
constant: B1 constant with T164C, L316Y
B22: equine IgG4 Y436W (antibody, part only; not given: variable domains, not shown: another chain or arm of the molecule)
constant: B1 constant with L316W
B23: equine IgG4 T286D (antibody, part only; not given: variable domains, not shown: another chain or arm of the molecule)
constant: B1 constant with T164D, L316Y
B24: equine IgG4 T286V (antibody, part only; not given: variable domains, not shown: another chain or arm of the molecule)
constant: B1 constant with T164V, L316Y
B25: equine IgG4 Y436Q (antibody, part only; not given: variable domains, not shown: another chain or arm of the molecule)
constant: B1 constant with L316Q
B26: equine IgG4 T286P (antibody, part only; not given: variable domains, not shown: another chain or arm of the molecule)
constant: B1 constant with T164P, L316Y
B27: equine IgG4 T286S (antibody, part only; not given: Variable domains, not shown: another chain or arm of the molecule)
constant: B1 constant with T164S, L316Y
B28: equine IgG1 T286W (antibody, part only; not given: Variable domains, not shown: another chain or arm of the molecule)
constant: ASTTAPKVFALAPGCGTTSDSTVALGCLVSGYFPEPVKVSWNSGSLTSGVHTFPSVLQSSGFYSLSSMVTVPASTWTSETYICNVVHAASNFKVDKRIEPIPDNHQKVCDMSKCPKCPAPELLGGPSVFIFPPNPKDTLMITRTPEVTCVVVDVSQENPDVKFNWYMDGVEVRWATTRPKEEQFNSTYRVVSVLRIQHQDWLSGKEFKCKVNNQALPQPIERTITKTKGRSQEPQVYVLAPHPDELSKSKVSVTCLVKDFYPPEINIEWQSNGQPELETKYSTTQAQQDSDGSYFLYSKLSVDRNRWQQGTTFTCGVMHEALHNHYTQKNVSKNPGK
B29: equine IgG1 Q311A (antibody, part only; not given: variable domains, not shown: another chain or arm of the molecule)
constant: B28 constant with W174T, Q199A
B30: equine IgG1 Q311G (antibody, part only; not given: variable domains, not shown: another chain or arm of the molecule)
constant: B28 constant with W174T, Q199G
B31: equine IgG1 T286Y (antibody, part only; not given: variable domains, not shown: another chain or arm of the molecule)
constant: B28 constant with W174Y
B32: equine IgG1 Q311E (antibody, part only; not given: variable domains, not shown: another chain or arm of the molecule)
constant: B28 constant with W174T, Q199E
B33: equine IgG1 Q311M (antibody, part only; not given: variable domains, not shown: another chain or arm of the molecule)
constant: B28 constant with W174T, Q199M
B34: equine IgG1 Q311L (antibody, part only; not given: Variable domains, not shown: another chain or arm of the molecule)
constant: B28 constant with W174T, Q199L
B35: equine IgG1 M252F (antibody, part only; not given: variable domains, not shown: another chain or arm of the molecule)
constant: B28 constant with M140F, W174T
B36: equine IgG1 Q311F (antibody, part only; not given: variable domains, not shown: another chain or arm of the molecule)
constant: B28 constant with W174T, Q199F
B37: equine IgG1 Q311C (antibody, part only; not given: variable domains, not shown: another chain or arm of the molecule)
constant: B28 constant with W174T, Q199C
B38: equine IgG1 Q311I (antibody, part only; not given: variable domains, not shown: another chain or arm of the molecule)
constant: B28 constant with W174T, Q199I
B39: equine IgG1 Q311D (antibody, part only; not given: variable domains, not shown: another chain or arm of the molecule)
constant: B28 constant with W174T, Q199D
B40: equine IgG1 Q311K (antibody, part only; not given: variable domains, not shown: another chain or arm of the molecule)
constant: B28 constant with W174T, Q199K
B41: equine IgG1 Q311H (antibody, part only; not given: variable domains, not shown: another chain or arm of the molecule)
constant: B28 constant with W174T, Q199H

The binders below were run against equine FcRn (large alpha subunit p51) / equine beta-2-microglobulin complex, biotinylated (equine) (UniProt P30441) (assay: SPR (Biacore), pH 6).
Chain of UniProt P30441 (P30441 21-118, one chain of several): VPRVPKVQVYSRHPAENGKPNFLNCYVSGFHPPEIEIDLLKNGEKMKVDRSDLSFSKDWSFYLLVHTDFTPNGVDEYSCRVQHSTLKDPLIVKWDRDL

Row | Binder | Kd
1 | B1 | 16 nM
2 | B2 | 13.3 nM
3 | B3 | 23.3 nM
4 | B4 | 30.9 nM
5 | B5 | 27.1 nM
6 | B6 | 14.3 nM
7 | B7 | 252 nM
8 | B8 | 20.3 nM
9 | B9 | 24.5 nM
10 | B10 | 27.2 nM
11 | B11 | 48.7 nM
12 | B12 | 26.9 nM
13 | B13 | 49.8 nM
14 | B14 | 24.7 nM
15 | B15 | 48.3 nM
16 | B16 | 17.5 nM
17 | B17 | 13.2 nM
18 | B18 | 21.4 nM
19 | B19 | 22.2 nM
20 | B20 | 45 nM
21 | B21 | 34.4 nM

Row | Binder | Kd
22 | B22 | 20.2 nM
23 | B23 | 492 nM
24 | B24 | 15.3 nM
25 | B25 | 25.6 nM
26 | B26 | 5.2 nM
27 | B27 | 24.1 nM
28 | B28 | 18.4 nM
29 | B29 | 21 nM
30 | B30 | 20.1 nM
31 | B31 | 15 nM
32 | B32 | 67.3 nM
33 | B33 | 12 nM
34 | B34 | 16.1 nM
35 | B35 | 47.5 nM
36 | B36 | 20.3 nM
37 | B37 | 15.7 nM
38 | B38 | 12.6 nM
39 | B39 | 54.6 nM
40 | B40 | 14.7 nM
41 | B41 | 24.3 nM
